Patent publication US20240409645A1 (DUALYX, published 2024)

B1: DC00045 (other)
chain 1: QVQLVESGGGLVQPGGSLRLSCATSGFTFRNNFMSWVRQAPGKGLEWVSTISYGGESTTYAESVKGRFTISRDNAKNTLYLQMNNLKPEDTAVYYCAKATSYDSIRSGSRGQGTQVTVSSDKTHTCPPCPAPEAAGGPSVFLFPPKPKDTLMISRTPEVTCVVVDVSHEDPEVKFNWYVDGVEVHNAKTKPREEQYNSTYRVVSVLTVLHQDWLNGKEYKCKVSNKALGAPIEKTISKAKGQPREPQVYTLPPSRDELTKNQVSLTCLVKGFYPSDIAVEWESNGQPENNYKTTPPVLDSDGSFLLYSKLTVDKSRWQQGNVFSCSVMHEALHNHYTQKSLSLSPGK
chain 2: QVQLVESGGGLVQAGGSLTLSCAAPGRTFGTDVVGWFRQAPGKEREFVASISRSGDGIYYDDSVKGRFTISRNNAWNTVNLQMNSLKVEDTAVYYCAAGDGWSTYDYWGQGTQVTVSSGGGGSGGGGSGGGGSQVQLVESGGGLVQPGGSLRLSCATSGFTFRNNFMSWVRQAPGKGLEWVSTISYGGESTTYAESVKGRFTISRDNAKNTLYLQMNNLKPEDTAVYYCAKATSYDSIRSGSRGQGTQVTVSSGGGGSGGGGSGGGGSEVQLVESGGGLVQTGGSLRLSCAASGGTFSRDAMAWFRQVPGKEREFVALISWSGATTNYADSVKGRFAISRDNGKNTVYLQMNRLKPADTAIYYCAADRRPMGSRSYFEPTEYDDWGQGTQVTVSSGGGGSGGGGSGGGGSDKTHTCPPCPAPEAAGGPSVFLFPPKPKDTLMISRTPEVTCVVVDVSHEDPEVKFNWYVDGVEVHNAKTKPREEQYNSTYRVVSVLTVLHQDWLNGKEYKCKVSNKALGAPIEKTISKAKGQPREPQVYTLPPSRDELTKNQVSLTCLVKGFYPSDIAVEWESNGQPENNYKTTPPVLDSDGSFFLYSRLTVDKSRWQQGNVFSCSVMHEALHNHYTQKSLSLSPGK
B2: DC00046 (other)
chain 1: QVQLVESGGGLVQPGGSLRLSCATSGFTFRNNFMSWVRQAPGKGLEWVSTISYGGESTTYAESVKGRFTISRDNAKNTLYLQMNNLKPEDTAVYYCAKATSYDSIRSGSRGQGTQVTVSSGGGGSGGGGSGGGGSQVQLVESGGGLVQPGGSLRLSCATSGFTFRNNFMSWVRQAPGKGLEWVSTISYGGESTTYAESVKGRFTISRDNAKNTLYLQMNNLKPEDTAVYYCAKATSYDSIRSGSRGQGTQVTVSSDKTHTCPPCPAPEAAGGPSVFLFPPKPKDTLMISRTPEVTCVVVDVSHEDPEVKFNWYVDGVEVHNAKTKPREEQYNSTYRVVSVLTVLHQDWLNGKEYKCKVSNKALGAPIEKTISKAKGQPREPQVYTLPPSRDELTKNQVSLTCLVKGFYPSDIAVEWESNGQPENNYKTTPPVLDSDGSFLLYSKLTVDKSRWQQGNVFSCSVMHEALHNHYTQKSLSLSPGK
chain 2: EVQLVESGGGLVQTGGSLRLSCAASGGTFSRDAMAWFRQVPGKEREFVALISWSGATTNYADSVKGRFAISRDNGKNTVYLQMNRLKPADTAIYYCAADRRPMGSRSYFEPTEYDDWGQGTQVTVSSGGGGSGGGGSGGGGSQVQLVESGGGLVQPGGSLRLSCATSGFTFRNNFMSWVRQAPGKGLEWVSTISYGGESTTYAESVKGRFTISRDNAKNTLYLQMNNLKPEDTAVYYCAKATSYDSIRSGSRGQGTQVTVSSGGGGSGGGGSGGGGSQVQLVESGGGLVQAGGSLTLSCAAPGRTFGTDVVGWFRQAPGKEREFVASISRSGDGIYYDDSVKGRFTISRNNAWNTVNLQMNSLKVEDTAVYYCAAGDGWSTYDYWGQGTQVTVSSGGGGSGGGGSGGGGSDKTHTCPPCPAPEAAGGPSVFLFPPKPKDTLMISRTPEVTCVVVDVSHEDPEVKFNWYVDGVEVHNAKTKPREEQYNSTYRVVSVLTVLHQDWLNGKEYKCKVSNKALGAPIEKTISKAKGQPREPQVYTLPPSRDELTKNQVSLTCLVKGFYPSDIAVEWESNGQPENNYKTTPPVLDSDGSFFLYSRLTVDKSRWQQGNVFSCSVMHEALHNHYTQKSLSLSPGK
B3: DC00047 (other)
chain 1: B2 chain 1
chain 2: EVQLVESGGGLVQTGGSLRLSCAASGGTFSRDAMAWFRQVPGKEREFVALISWSGATTNYADSVKGRFAISRDNGKNTVYLQMNRLKPADTAIYYCAADRRPMGSRSYFEPTEYDDWGQGTQVTVSSGGGGSGGGGSGGGGSQVQLVESGGGLVQAGGSLTLSCAAPGRTFGTDVVGWFRQAPGKEREFVASISRSGDGIYYDDSVKGRFTISRNNAWNTVNLQMNSLKVEDTAVYYCAAGDGWSTYDYWGQGTQVTVSSGGGGSGGGGSGGGGSDKTHTCPPCPAPEAAGGPSVFLFPPKPKDTLMISRTPEVTCVVVDVSHEDPEVKFNWYVDGVEVHNAKTKPREEQYNSTYRVVSVLTVLHQDWLNGKEYKCKVSNKALGAPIEKTISKAKGQPREPQVYTLPPSRDELTKNQVSLTCLVKGFYPSDIAVEWESNGQPENNYKTTPPVLDSDGSFFLYSRLTVDKSRWQQGNVFSCSVMHEALHNHYTQKSLSLSPGK
B4: DC00048 (other)
chain 1: B2 chain 1
chain 2: QVQLVESGGGLVQPGGSLRLSCATSGFTFRNNFMSWVRQAPGKGLEWVSTISYGGESTTYAESVKGRFTISRDNAKNTLYLQMNNLKPEDTAVYYCAKATSYDSIRSGSRGQGTQVTVSSGGGGSGGGGSGGGGSQVQLVESGGGLVQAGGSLTLSCAAPGRTFGTDVVGWFRQAPGKEREFVASISRSGDGIYYDDSVKGRFTISRNNAWNTVNLQMNSLKVEDTAVYYCAAGDGWSTYDYWGQGTQVTVSSGGGGSGGGGSGGGGSEVQLVESGGGLVQTGGSLRLSCAASGGTFSRDAMAWFRQVPGKEREFVALISWSGATTNYADSVKGRFAISRDNGKNTVYLQMNRLKPADTAIYYCAADRRPMGSRSYFEPTEYDDWGQGTQVTVSSGGGGSGGGGSGGGGSDKTHTCPPCPAPEAAGGPSVFLFPPKPKDTLMISRTPEVTCVVVDVSHEDPEVKFNWYVDGVEVHNAKTKPREEQYNSTYRVVSVLTVLHQDWLNGKEYKCKVSNKALGAPIEKTISKAKGQPREPQVYTLPPSRDELTKNQVSLTCLVKGFYPSDIAVEWESNGQPENNYKTTPPVLDSDGSFFLYSRLTVDKSRWQQGNVFSCSVMHEALHNHYTQKSLSLSPGK
B5: DC00049 (other)
chain 1: B2 chain 1
chain 2: QVQLVESGGGLVQAGGSLTLSCAAPGRTFGTDVVGWFRQAPGKEREFVASISRSGDGIYYDDSVKGRFTISRNNAWNTVNLQMNSLKVEDTAVYYCAAGDGWSTYDYWGQGTQVTVSSGGGGSGGGGSGGGGSEVQLVESGGGLVQTGGSLRLSCAASGGTFSRDAMAWFRQVPGKEREFVALISWSGATTNYADSVKGRFAISRDNGKNTVYLQMNRLKPADTAIYYCAADRRPMGSRSYFEPTEYDDWGQGTQVTVSSGGGGSGGGGSGGGGSDKTHTCPPCPAPEAAGGPSVFLFPPKPKDTLMISRTPEVTCVVVDVSHEDPEVKFNWYVDGVEVHNAKTKPREEQYNSTYRVVSVLTVLHQDWLNGKEYKCKVSNKALGAPIEKTISKAKGQPREPQVYTLPPSRDELTKNQVSLTCLVKGFYPSDIAVEWESNGQPENNYKTTPPVLDSDGSFFLYSRLTVDKSRWQQGNVFSCSVMHEALHNHYTQKSLSLSPGK
B6: DC00050 (other)
chain 1: B2 chain 1
chain 2: QVQLVESGGGLVQPGGSLRLSCATSGFTFRNNFMSWVRQAPGKGLEWVSTISYGGESTTYAESVKGRFTISRDNAKNTLYLQMNNLKPEDTAVYYCAKATSYDSIRSGSRGQGTQVTVSSGGGGSGGGGSGGGGSEVQLVESGGGLVQTGGSLRLSCAASGGTFSRDAMAWFRQVPGKEREFVALISWSGATTNYADSVKGRFAISRDNGKNTVYLQMNRLKPADTAIYYCAADRRPMGSRSYFEPTEYDDWGQGTQVTVSSGGGGSGGGGSGGGGSQVQLVESGGGLVQAGGSLTLSCAAPGRTFGTDVVGWFRQAPGKEREFVASISRSGDGIYYDDSVKGRFTISRNNAWNTVNLQMNSLKVEDTAVYYCAAGDGWSTYDYWGQGTQVTVSSGGGGSGGGGSGGGGSDKTHTCPPCPAPEAAGGPSVFLFPPKPKDTLMISRTPEVTCVVVDVSHEDPEVKFNWYVDGVEVHNAKTKPREEQYNSTYRVVSVLTVLHQDWLNGKEYKCKVSNKALGAPIEKTISKAKGQPREPQVYTLPPSRDELTKNQVSLTCLVKGFYPSDIAVEWESNGQPENNYKTTPPVLDSDGSFFLYSRLTVDKSRWQQGNVFSCSVMHEALHNHYTQKSLSLSPGK

Biological target: T1, human IL-2 receptor (IL-2Rα/IL-2Rβ/γc) (human, UniProt P01589 22-272; P14784 27-551; P31785 23-369)
T1 sequence 1: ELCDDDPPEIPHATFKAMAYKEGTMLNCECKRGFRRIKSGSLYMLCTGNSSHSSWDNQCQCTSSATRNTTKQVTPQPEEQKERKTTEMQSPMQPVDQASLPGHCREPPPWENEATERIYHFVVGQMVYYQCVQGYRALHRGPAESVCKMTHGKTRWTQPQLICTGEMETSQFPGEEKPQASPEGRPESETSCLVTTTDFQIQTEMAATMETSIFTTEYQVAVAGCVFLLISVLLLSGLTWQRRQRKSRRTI
T1 sequence 2: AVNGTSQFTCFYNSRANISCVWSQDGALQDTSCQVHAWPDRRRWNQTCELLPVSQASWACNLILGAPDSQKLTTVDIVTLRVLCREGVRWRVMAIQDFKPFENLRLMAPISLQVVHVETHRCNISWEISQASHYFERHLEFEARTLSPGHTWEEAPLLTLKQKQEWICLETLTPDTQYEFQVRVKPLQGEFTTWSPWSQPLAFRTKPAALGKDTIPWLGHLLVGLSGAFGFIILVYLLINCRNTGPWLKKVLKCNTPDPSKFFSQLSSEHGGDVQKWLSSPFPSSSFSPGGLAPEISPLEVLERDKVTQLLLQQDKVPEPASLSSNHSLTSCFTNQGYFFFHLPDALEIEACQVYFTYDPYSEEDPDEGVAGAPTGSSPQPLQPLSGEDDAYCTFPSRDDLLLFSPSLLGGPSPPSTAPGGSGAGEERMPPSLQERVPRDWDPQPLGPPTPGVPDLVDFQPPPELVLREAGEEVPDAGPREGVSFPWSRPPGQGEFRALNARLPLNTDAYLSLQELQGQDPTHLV
T1 sequence 3: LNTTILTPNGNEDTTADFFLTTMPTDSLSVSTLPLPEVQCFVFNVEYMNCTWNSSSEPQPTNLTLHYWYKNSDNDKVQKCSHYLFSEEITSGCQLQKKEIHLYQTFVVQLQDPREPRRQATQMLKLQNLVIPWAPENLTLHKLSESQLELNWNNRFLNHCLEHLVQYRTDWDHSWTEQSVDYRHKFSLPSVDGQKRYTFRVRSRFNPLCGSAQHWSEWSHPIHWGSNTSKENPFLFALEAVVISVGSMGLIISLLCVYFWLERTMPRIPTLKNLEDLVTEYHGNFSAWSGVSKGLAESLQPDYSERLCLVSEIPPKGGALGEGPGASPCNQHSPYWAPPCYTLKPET
Assay: cell-based or functional assay

Binder	EC50 (nM) pSTAT5, NK, human PBMCs [nM]	EC50 (nM) pSTAT5, Treg, human PBMCs	Fold Max signal (% pSTAT5+) Treg/NK [fold]	Max signal (% pSTAT5+), NK [% pSTAT5+]	Max signal (% pSTAT5+), Treg [% pSTAT5+]	fold EC50 NK/Treg [fold]
B1	0.0573	0.151 pM	12	7	88	379
B2	–	–	4	6	25	–
B3	–	–	1	0	0	–
B4	0.176	< 0.1 pM	4	26	95	> 1760
B5	0.198	0.00336 nM	4	27	95	59
B6	0.0326	0.00134 nM	7	8	56	24
